# Laboratory results: US20250027945A1
# Assays:
# [1] = biological target: human RYK on the surface of human tumor cell lines (human) (UniProt P34925); assay: flow cytometry, REH cells (ALL), isotype matched control mAb, equal amount
# [2] = biological target: human RYK on the surface of human tumor cell lines (human) (UniProt P34925); assay: flow cytometry, EW36 cells (NHL), isotype matched control mAb, equal amount
# [3] = biological target: human RYK on the surface of human tumor cell lines (human) (UniProt P34925); assay: flow cytometry, K562 cells (CML), isotype matched control mAb, equal amount
# [4] = biological target: human RYK on the surface of human tumor cell lines (human) (UniProt P34925); assay: flow cytometry, MEC1 cells (CLL), isotype matched control mAb, equal amount
# [5] = biological target: human RYK on the surface of human tumor cell lines (human) (UniProt P34925); assay: flow cytometry, A549 cells (lung), isotype matched control mAb, equal amount
# [6] = biological target: human RYK on the surface of human tumor cell lines (human) (UniProt P34925); assay: flow cytometry, H292 cells (lung), isotype matched control mAb, equal amount
# [7] = biological target: human RYK on the surface of human tumor cell lines (human) (UniProt P34925); assay: flow cytometry, H446 cells (lung), isotype matched control mAb, equal amount
# [8] = biological target: human RYK on the surface of human tumor cell lines (human) (UniProt P34925); assay: flow cytometry, H460 cells (lung), isotype matched control mAb, equal amount
# [9] = biological target: human RYK on the surface of human tumor cell lines (human) (UniProt P34925); assay: flow cytometry, NALM6 cells (ALL), isotype matched control mAb, equal amount
# [10] = biological target: human RYK on the surface of human tumor cell lines (human) (UniProt P34925); assay: flow cytometry, HT144 cells (skin), isotype matched control mAb, equal amount
# [11] = biological target: human RYK on the surface of human tumor cell lines (human) (UniProt P34925); assay: flow cytometry, HT29 cells (colon), isotype matched control mAb, equal amount
# [12] = biological target: human RYK on the surface of human tumor cell lines (human) (UniProt P34925); assay: flow cytometry, HS683 cells (brain), isotype matched control mAb, equal amount
# [13] = biological target: human RYK on the surface of human tumor cell lines (human) (UniProt P34925); assay: flow cytometry, JEKO cells (mantle), isotype matched control mAb, equal amount
# [14] = biological target: human RYK on the surface of human tumor cell lines (human) (UniProt P34925); assay: flow cytometry, MCF7 cells (breast), isotype matched control mAb, equal amount
# [15] = biological target: human RYK on the surface of human tumor cell lines (human) (UniProt P34925); assay: flow cytometry, MINO cells (mantle), isotype matched control mAb, equal amount
# [16] = biological target: human RYK on the surface of human tumor cell lines (human) (UniProt P34925); assay: flow cytometry, SW620 cells (colon), isotype matched control mAb, equal amount
# [17] = biological target: human RYK on the surface of human tumor cell lines (human) (UniProt P34925); assay: flow cytometry, SW948 cells (colon), isotype matched control mAb, equal amount
# [18] = biological target: human RYK on the surface of human tumor cell lines (human) (UniProt P34925); assay: flow cytometry, T24 cells (bladder), isotype matched control mAb, equal amount
# [19] = biological target: human RYK on the surface of human tumor cell lines (human) (UniProt P34925); assay: flow cytometry, BT549 cells (breast), isotype matched control mAb, equal amount
# [20] = biological target: human RYK on the surface of human tumor cell lines (human) (UniProt P34925); assay: flow cytometry, PC3 cells (prostate), isotype matched control mAb, equal amount
# [21] = biological target: human RYK on the surface of human tumor cell lines (human) (UniProt P34925); assay: flow cytometry, SKBR3 cells (breast), isotype matched control mAb, equal amount
# [22] = biological target: human RYK on the surface of human tumor cell lines (human) (UniProt P34925); assay: flow cytometry, T47-D cells (breast), isotype matched control mAb, equal amount
# [23] = biological target: human RYK on the surface of human tumor cell lines (human) (UniProt P34925); assay: flow cytometry, NCI H226 cells (lung), isotype matched control mAb, equal amount
# [24] = biological target: human RYK on the surface of human tumor cell lines (human) (UniProt P34925); assay: flow cytometry, SH-SY5Y cells (brain), isotype matched control mAb, equal amount
# [25] = biological target: human RYK on the surface of human tumor cell lines (human) (UniProt P34925); assay: flow cytometry, SK-MEL-2 cells (skin), isotype matched control mAb, equal amount
# [26] = biological target: human RYK on the surface of human tumor cell lines (human) (UniProt P34925); assay: flow cytometry, SK-MES-1 cells (lung), isotype matched control mAb, equal amount
# [27] = biological target: human RYK on the surface of human tumor cell lines (human) (UniProt P34925); assay: flow cytometry, HS-578T cells (breast), isotype matched control mAb, equal amount
# [28] = biological target: human RYK on the surface of human tumor cell lines (human) (UniProt P34925); assay: flow cytometry, NCI H1155 cells (lung), isotype matched control mAb, equal amount
# [29] = biological target: human RYK on the surface of human tumor cell lines (human) (UniProt P34925); assay: flow cytometry, OVCAR4 cells (ovarian), isotype matched control mAb, equal amount
# [30] = biological target: human RYK on the surface of human tumor cell lines (human) (UniProt P34925); assay: flow cytometry, DU-145 cells (prostate), isotype matched control mAb, equal amount
# [31] = biological target: human RYK on the surface of human tumor cell lines (human) (UniProt P34925); assay: flow cytometry, SK-OV-3 cells (ovarian), isotype matched control mAb, equal amount
# [32] = biological target: human RYK on the surface of human tumor cell lines (human) (UniProt P34925); assay: flow cytometry, CAPAN-1 cells (pancreas), isotype matched control mAb, equal amount
# [33] = biological target: human RYK on the surface of human tumor cell lines (human) (UniProt P34925); assay: flow cytometry, CAPAN-2 cells (pancreas), isotype matched control mAb, equal amount
# [34] = biological target: human RYK on the surface of human tumor cell lines (human) (UniProt P34925); assay: flow cytometry, MOLT4 cells (T-cell ALL), isotype matched control mAb, equal amount
# [35] = biological target: human RYK on the surface of human tumor cell lines (human) (UniProt P34925); assay: flow cytometry, RAJI cells (Burkitt NHL), isotype matched control mAb, equal amount
# [36] = biological target: human RYK on the surface of human tumor cell lines (human) (UniProt P34925); assay: flow cytometry, COLO 829 cells (melanoma), isotype matched control mAb, equal amount
# [37] = biological target: human RYK on the surface of human tumor cell lines (human) (UniProt P34925); assay: flow cytometry, JURKAT cells (T-cell ALL), isotype matched control mAb, equal amount
# [38] = biological target: human RYK on the surface of human tumor cell lines (human) (UniProt P34925); assay: flow cytometry, MDA-MB-231 cells (breast), isotype matched control mAb, equal amount
# [39] = biological target: human RYK on the surface of human tumor cell lines (human) (UniProt P34925); assay: flow cytometry, RAMOS cells (Burkitt NHL), isotype matched control mAb, equal amount
# [40] = biological target: human RYK on the surface of human tumor cell lines (human) (UniProt P34925); assay: flow cytometry, A673 cells (Ewings sarcoma), isotype matched control mAb, equal amount
# [41] = biological target: human RYK on the surface of human tumor cell lines (human) (UniProt P34925); assay: flow cytometry, U937 cells (monocyte cancer), isotype matched control mAb, equal amount
# [42] = biological target: human RYK on the surface of human tumor cell lines (human) (UniProt P34925); assay: flow cytometry, HELA cells (ovarian as printed), isotype matched control mAb, equal amount
# [43] = biological target: human RYK on the surface of human tumor cell lines (human) (UniProt P34925); assay: flow cytometry, NCI H929 cells (melanoma as printed), isotype matched control mAb, equal amount
# [44] = biological target: human RYK on the surface of human tumor cell lines (human) (UniProt P34925); assay: flow cytometry of dissociated primary triple-negative breast cancer PDX cells M0026 (T1), fluorochrome-conjugated isotype control mAb; count 15903
# Chain of human RYK on the surface of human tumor cell lines (human) (P34925 46-607 limits assumed, form in doubt): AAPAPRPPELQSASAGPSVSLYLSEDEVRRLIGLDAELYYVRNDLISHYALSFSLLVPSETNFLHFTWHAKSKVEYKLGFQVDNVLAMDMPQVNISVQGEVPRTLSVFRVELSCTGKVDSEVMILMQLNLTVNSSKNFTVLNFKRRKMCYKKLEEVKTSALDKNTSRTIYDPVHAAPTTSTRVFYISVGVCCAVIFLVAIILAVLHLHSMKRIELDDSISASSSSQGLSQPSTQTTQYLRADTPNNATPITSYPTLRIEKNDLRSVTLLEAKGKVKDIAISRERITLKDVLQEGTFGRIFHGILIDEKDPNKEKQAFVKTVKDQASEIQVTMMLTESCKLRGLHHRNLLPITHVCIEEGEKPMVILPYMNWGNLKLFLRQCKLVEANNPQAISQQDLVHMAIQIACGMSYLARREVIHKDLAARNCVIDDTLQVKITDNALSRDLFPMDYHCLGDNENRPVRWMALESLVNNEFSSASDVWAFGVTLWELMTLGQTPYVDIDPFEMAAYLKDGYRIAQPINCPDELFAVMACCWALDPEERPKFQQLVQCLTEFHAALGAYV
substance,measurement,setting,value
isotype matched control mAb (antibody),MFI,[1],7.4
same,MFI,[2],5.6
same,MFI,[3],2.8
same,MFI,[4],4.3
same,MFI,[5],4.8
same,MFI,[6],107
same,MFI,[7],23.3
same,MFI,[8],58
same,MFI,[9],5.7
same,MFI,[10],126
same,MFI,[11],100
same,MFI,[12],229
same,MFI,[13],3.9
same,MFI,[14],5.2
same,MFI,[15],7.6
same,MFI,[16],5.6
same,MFI,[17],30.7
same,MFI,[18],72.6
same,MFI,[19],197
same,MFI,[20],2.8
same,MFI,[21],73.9
same,MFI,[22],25.7
same,MFI,[23],6
same,MFI,[24],4.1
same,MFI,[25],7
same,MFI,[26],156
same,MFI,[27],7.3
same,MFI,[28],6.2
same,MFI,[29],61
same,MFI,[30],3.2
same,MFI,[31],5.6
same,MFI,[32],86.9
same,MFI,[33],4.7
same,MFI,[34],5.1
same,MFI,[35],6.4
same,MFI,[36],6.9
same,MFI,[37],5.7
same,MFI,[38],8.3
same,MFI,[39],6.1
same,MFI,[40],52
same,MFI,[41],6.7
same,MFI,[42],6.1
same,MFI,[43],43.8
same,Median : Comp-Alexa Fluor 647-A,[44],39.9
